The results in this text go back to the supplement of paper PMC9732359.

The nature of the data set: protein stability index of a GFP-peptide fusion (yeast GPS) (PSI 1-4); higher = more stable; sorted into four equal gates, so the index is relative within each strain. The essentials: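 Yeast carrying a pooled library were grown to mid-log phase in leucine-free medium. Each library plasmid expresses Cherry and has a tiled 17-residue yeast protein peptide fused downstream of GFP. Cells were sorted into four equal gates by GFP/Cherry ratio, and plasmids from each gate were PCR-amplified, Illumina-sequenced and assigned to strains by barcode. Summing, across gates, the read frequency times the gate number gave each peptide's protein stability index.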

± gives the uncertainty stated by the source.

Regarding ESTETGYVIKVFNNGIV [DIS3], the protein stability index by setting is: (doa10∆) 2.34 ± 0.19; (pdr5∆) 3.08 ± 0.21; (san1∆) 2.13 ± 0.14; (ubr1∆) 1.21 ± 0.24.
ESWANQLTVCGAIIGWT [FAS2]: the protein stability index (doa10∆) is 1.13 ± 0.041, the protein stability index (pdr5∆) was found to be 1.3 ± 0.038, the protein stability index (san1∆) stood at 1.2 ± 0.088 and the protein stability index (ubr1∆) turned out to be 1.44 ± 0.037.
In the same order, the values of ESWFKALAGSEINWRHA [FAS1] are 3.31 ± 0.11, 2.54 ± 0.081, 2.63 ± 0.083 and 2.59 ± 0.057.
As to ETASFIPTKESLTRDFE [YIL149C/MLP2], the protein stability index by setting is: (doa10∆) 2.83 ± 0.068; (pdr5∆) 3.09 ± 0.075; (san1∆) 2.41 ± 0.077; (ubr1∆) 2.72 ± 0.046.
For ETDHANTENNDPDIPMT [IRR1], in that order: 2.74 ± 0.09, 2.59 ± 0.066, 2.81 ± 0.048 and 2.68 ± 0.07.
In the same order, the values of ETDNEMNGNGKPGIPRG [SIR3] are 3.16 ± 0.099, 3.11 ± 0.083, 3.39 ± 0.053 and 2.99 ± 0.1.
Regarding ETEAEEDHMLKKIENTM [RPO21], the protein stability index by setting is: (pdr5∆) 3.37 ± 0.18; (ubr1∆) 3.46 ± 0.15.
Turning to ETELFEPGVLNTGDGSI [ECM29], the protein stability index reads like this: (doa10∆) 3.25 ± 0.15; (pdr5∆) 3.2 ± 0.11; (san1∆) 2.92 ± 0.12; (ubr1∆) 3.07 ± 0.11.
Regarding ETENSESIASSNTYKEE [MCD1], the protein stability index (pdr5∆) amounted to 2.55 ± 0.29 and the protein stability index (ubr1∆) was 2.89 ± 0.074.
The sequence ETFISSMTATADVLAMA [RIP1] had a protein stability index (doa10∆) of 1.93 ± 0.11, a protein stability index (pdr5∆) of 2.48 ± 0.097, a protein stability index (san1∆) of 3.13 ± 0.077 and a protein stability index (ubr1∆) of 1.44 ± 0.054.
ETGKLLSGLAQRKTNGA [BRN1]: the protein stability index (san1∆) was determined as 2.97 ± 0.11.
Turning to ETGNFSWASEGISKKTR [RPS8A], the protein stability index by setting is: (doa10∆) 3.15 ± 0.037; (pdr5∆) 3.267 ± 0.028; (san1∆) 3.206 ± 0.028; (ubr1∆) 3.228 ± 0.025.
For ETISNVAKTAPNSNKTH [SNF2], in that order: 2.96 ± 0.055, 3 ± 0.061, 2.96 ± 0.035 and 3.07 ± 0.045.
For ETKADGILLETISVPQI [RRP6], in that order: 2.58 ± 0.076, 2.52 ± 0.056, 2.51 ± 0.061 and 2.26 ± 0.053.
For ETKVDELRYQSHILNSH [DSN1], in that order: 2.38 ± 0.067, 2.84 ± 0.057, 2.79 ± 0.055 and 3 ± 0.05.
For ETLKRDRKQSQATNATN [ARP7], the protein stability index worked out at 2.69 ± 0.074 (doa10∆), 2.86 ± 0.082 (pdr5∆), 2.39 ± 0.11 (san1∆) and 2.74 ± 0.068 (ubr1∆).
In the case of ETNAKPFSFSSATSTTE [YLR335W/NUP2], the protein stability index reads like this: (doa10∆) 2.18 ± 0.056; (pdr5∆) 2.4 ± 0.053; (san1∆) 2.35 ± 0.053; (ubr1∆) 2.26 ± 0.035.
For ETPSRLLLSPDQWYCID [ITC1], in that order: 2.8 ± 0.062, 3.21 ± 0.085, 3.16 ± 0.075 and 2.81 ± 0.051.
For ETQVEVEKNEIGKMYDE [NNF1], in that order: 3.05 ± 0.19, 3.21 ± 0.11, 2.98 ± 0.17 and 3.37 ± 0.13.
For EVAIRDVNLDVRIHSIQ [IRR1], in that order: 2.4 ± 0.06, 2.1 ± 0.061, 2.49 ± 0.059 and 1.68 ± 0.052.
For the sequence EVDEKPTETYSDVGGLD [RPT5], the protein stability index stood at 3.35 ± 0.082 (doa10∆), 3.3 ± 0.07 (pdr5∆), 3.16 ± 0.058 (san1∆) and 3.23 ± 0.059 (ubr1∆).
In the same order, the values of EVFQLRIFVKEILEKCA [GAL11] are 2.29 ± 0.12, 2.11 ± 0.12, 2.19 ± 0.077 and 2.12 ± 0.19.
For EVGDVCINELDNWNAPL [RPO31], in that order: 3.21 ± 0.086, 3.06 ± 0.074, 3.21 ± 0.052 and 3.25 ± 0.053.
In the case of EVRGQVPVIESAGFETD [SNU114], the protein stability index is, setting by setting: (doa10∆) 1.37 ± 0.052; (pdr5∆) 1.59 ± 0.06; (san1∆) 1.49 ± 0.15; (ubr1∆) 1.86 ± 0.057.
For EVRRAAMLNLINDNNTR [YCG1], in that order: 3.32 ± 0.12, 3.41 ± 0.11, 2.94 ± 0.11 and 3.13 ± 0.1.
For EVSCKLLETITYVLNTW [YML103C/NUP188], in that order: 2.15 ± 0.068, 2.35 ± 0.073, 2.07 ± 0.11 and 2.11 ± 0.082.
In the same order, the values of EVVQTGAKNIEITVVKP [PRE6] are 3.24 ± 0.098, 3.3 ± 0.093, 3.08 ± 0.052 and 3.04 ± 0.087.
On to EWDLYPQGFSSVERGRK [REC8], for which the protein stability index stood at 3.41 ± 0.13 (doa10∆), 3.54 ± 0.14 (pdr5∆), 3.44 ± 0.086 (san1∆) and 3.48 ± 0.12 (ubr1∆).
In the same order, the values of EWFEQNNSEQDQEIVIQ [ISW2] are 3.04 ± 0.13, 3.19 ± 0.14, 2.45 ± 0.18 and 3.25 ± 0.093.
Sequence EWHSSLTLKEAELLVLK [PUP2] displayed a protein stability index (pdr5∆) of 2.47 ± 0.27 and a protein stability index (ubr1∆) of 1.63 ± 0.25.
Turning to EWNGKSFQKKSNDKVVE [ISW2], the protein stability index is, setting by setting: (doa10∆) 3.14 ± 0.054; (pdr5∆) 3.34 ± 0.058; (san1∆) 3.01 ± 0.049; (ubr1∆) 3.08 ± 0.064.
In the same order, the values of EYADNDEDKFKKLKPIV [PRP28] are 2.82 ± 0.072, 2.65 ± 0.092, 3.09 ± 0.09 and 2.64 ± 0.041.
In the same order, the values of EYIIAAIRKAPHNSKSL [RPN3] are 2.79 ± 0.067, 2.76 ± 0.061, 2.64 ± 0.045 and 2.68 ± 0.06.
In the same order, the values of EYQVIGRRLPTESVPEP [RPL20A] are 3.08 ± 0.11, 3.21 ± 0.1, 3.1 ± 0.13 and 3.15 ± 0.06.
For EYTINLHKRLHGVSFKK [RPL31A], the protein stability index (doa10∆) was determined as 2.24 ± 0.093, the protein stability index (pdr5∆) turned out to be 2.19 ± 0.088, the protein stability index (san1∆) came out at 2.14 ± 0.11 and the protein stability index (ubr1∆) turned out to be 1.61 ± 0.061.
For EYVYFFNNTSVIQDEVL [RPC40], the protein stability index amounted to 2.41 ± 0.15 (doa10∆) and 2.55 ± 0.073 (ubr1∆).
Turning to FAAAPNDTSSGTNAMLP [SNF5], the protein stability index was determined as 3.13 ± 0.078 (doa10∆), 3.26 ± 0.13 (pdr5∆), 3.06 ± 0.096 (san1∆) and 2.89 ± 0.1 (ubr1∆).
In the case of FAFWNLLVKFIKFFWNN [YLR018C/POM34], the protein stability index was 2.13 ± 0.23 (doa10∆), 2 ± 0.076 (pdr5∆), 1.7 ± 0.13 (san1∆) and 1.36 ± 0.24 (ubr1∆).
For FAGSNNQPHQSQTPSFN [YOR098C/NUP1], in that order: 2.68 ± 0.046, 2.91 ± 0.036, 2.73 ± 0.036 and 3.01 ± 0.031.
